Laboratory results: paper PMC12236752

Molecular target: Avs8A (ECOR07), fused to 6xHis-SUMO (E. coli ECOR07) (UniProt B7LDL1)
Assay: MST

## Basel 21 major capsid protein (natural protein)
  Kd: 14 nM
